According to paper PMC4252486:

Assays:
Test in all cases: fluorescence anisotropy
NCp9 (NCp7-SP2) = NCp9 (NCp7-SP2) (HIV-1 NL4-3, UniProt P12493 378-448)
[1] = target: NCp7 (mature nucleocapsid) (HIV-1 NL4-3, UniProt P12493 378-432)
NCp15 WT (NCp7-SP2-p6) = NCp15 WT (NCp7-SP2-p6) (HIV-1 NL4-3, UniProt P12493 378-500)

AGCTGCTTTTTGCCTGTACT (ssDNA) [JL936 (20-nt ssDNA)]
Kd (NCp9 (NCp7-SP2)): 45 nM
Kd [1]: 176 nM
Kd (NCp15 WT (NCp7-SP2-p6)): 151 nM
